{
  "source": "paper PMC6890793",
  "about": "“How water-mediated hydrogen bonds affect chlorophyll a/b selectivity in Water-Soluble Chlorophyll Protein” (Scientific Reports, 2019)",
  "proteins": {"B1": {"name": "Water-Soluble Chlorophyll Protein (WSCP) from Brassica oleracea var. botrytis, wild type, reconstituted with Chl b (natural protein)", "chain": "REQVKDSNGNPVKRGAKYFIQPAKSNGGGLVPAAINILPFCPLGITQTLLPYQPGLPVSFGYEPVIVGTDYIYTSTTINIEFRSEIWPVCNELSKLWAVDVSSSAAKEPAIIIGGERTAPNSLFKIEEATGAHTYKLTTSSGTVGTIPGPWLGAPQLIATNDDAKTLFVKFVKVDDDAT", "notes": "Water-Soluble Chlorophyll Protein (WSCP), Brassica oleracea var. botrytis (cauliflower), wild type; also called Bo-wt; Chl b Bo-wt; source: E. coli, overexpressed, purified; apoprotein reconstituted with Chl b"}},
  "molecular_target": "the molecule itself",
  "assay": "crystal structure; Chl b-reconstituted WSCP crystallised by hanging-drop vapour diffusion (Lv-wt: 0.1 M Na/K phosphate pH 6.0, 3.0 M (NH4)2SO4, 4.7% sucrose; Bo-wt: 0.1 M (NH4)H2PO4 pH 4.5, 10% PEG 3350); data at 100 K; molecular replacement with the Chl a complexes",
  "data": [
    {"protein": "B1", "values": [
      {"measurement": "binding result", "result": "binds"}
    ]}
  ]
}
